The results in this text go back to the supplement of paper PMC10724198.

The subject of the data set is Saccharomyces cerevisiae. Put plainly: protein stability index of tFT-peptide fusion (C-terminal peptide) (PSI (0-1 scale)); higher = more stable (slower turnover). The settings on record: temperature: 30 C. As for the experimental part: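 MPS profiling in S. cerevisiae of the yeast C-terminome library: the last 12 aa of each annotated ORF are fused to the C-terminus of a sfGFP-mCherry timer, after a GGGS linker. Cells are FACS-sorted into 8 mCherry/sfGFP bins and deep-sequenced. PSI runs from 0 (unstable) to 1 (stable); wild type and das1Δ backgrounds, two technical replicates each.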

Setting [1] is: genetic background: das1 deletion.

± gives the standard deviation of the averaged measurements.

Turning to NILKVDSNSSSS [RGR1 C-terminal 12 aa], the protein stability index by setting is: under setting [1], 0.7201 ± 0.0019; (genetic background: wild type) 0.702 ± 0.029.

As for NKGPPCKTSALL [HMG2 C-terminal 12 aa], the protein stability index stood at 0.739 ± 0.023 under setting [1] and 0.668 ± 0.011 (genetic background: wild type).

As to NKNLHGINTNEF [TRE1 C-terminal 12 aa], the protein stability index turned out to be 0.7067 ± 0.0039 under setting [1] and 0.6665 ± 0.0019 (genetic background: wild type).

Regarding “NLPFYKNQATLQ [YBR131C-A C-terminal 12 aa]”, the protein stability index came out at 0.6902 ± 0.005 under setting [1] and 0.707 ± 0.031 (genetic background: wild type).

Consider NLRADSFLQYPL [YDR029W C-terminal 12 aa], for which the protein stability index runs as follows: under setting [1], 0.704 ± 0.0075; (genetic background: wild type) 0.714 ± 0.021.

With NNKSIQKVNSPS [PAC2 C-terminal 12 aa], the protein stability index is, setting by setting: under setting [1], 0.709 ± 0.0075; (genetic background: wild type) 0.807 ± 0.035.

Consider NPHPRIQMKMSV [CDC21 C-terminal 12 aa], for which the protein stability index reads like this: under setting [1], 0.663 ± 0.035; (genetic background: wild type) 0.624 ± 0.048.

Take NPPERAKVNARS [RCR1 C-terminal 12 aa]: the protein stability index by setting is: under setting [1], 0.675 ± 0.017; (genetic background: wild type) 0.68 ± 0.042.

In the case of “NPSLRQSRIQGW [YGR161W-C C-terminal 12 aa]”, the protein stability index came out at 0.725 ± 0.005 under setting [1] and 0.731 ± 0.034 (genetic background: wild type).

Turning to NPTALEKGIKDL [TRX3 C-terminal 12 aa], the protein stability index by setting is: under setting [1], 0.714 ± 0.025; (genetic background: wild type) 0.69 ± 0.016.

Take NPVVNRHIEHDD [COX13 C-terminal 12 aa]: the protein stability index stood at 0.701 ± 0.011 under setting [1] and 0.707 ± 0.017 (genetic background: wild type).

As for NRPGKSRRARRF [EBP2 C-terminal 12 aa], the protein stability index is, setting by setting: under setting [1], 0.694 ± 0.026; (genetic background: wild type) 0.668 ± 0.016.

As for NSAGLLTLEYLS [TFC6 C-terminal 12 aa], the protein stability index worked out at 0.696 ± 0.012 under setting [1] and 0.719 ± 0.036 (genetic background: wild type).

Regarding NSKSNGNLFNSQ [NDD1 C-terminal 12 aa], the protein stability index by setting is: under setting [1], 0.72 ± 0.015; (genetic background: wild type) 0.682 ± 0.015.

Regarding NTSLLFKKWEGS [CEM1 C-terminal 12 aa], the protein stability index is 0.707 ± 0.01 under setting [1] and 0.702 ± 0.04 (genetic background: wild type).

In the case of NTSTYGQTVQPV [YLR456W C-terminal 12 aa], the protein stability index runs as follows: under setting [1], 0.6791 ± 0.00098; (genetic background: wild type) 0.678 ± 0.041.

With NVSDLFQWQNAK [CAT8 C-terminal 12 aa], the protein stability index turned out to be 0.744 ± 0.017 under setting [1] and 0.683 ± 0.047 (genetic background: wild type).

In the case of NVTAVKALNECF [SKI3 C-terminal 12 aa], the protein stability index is, setting by setting: under setting [1], 0.6887 ± 0.0054; (genetic background: wild type) 0.652 ± 0.026.

As to NWDQHNPRNSIH [IRC10 C-terminal 12 aa], the protein stability index reads like this: under setting [1], 0.719 ± 0.013; (genetic background: wild type) 0.78 ± 0.067.

Consider NYTLTVENKNKV [SPC3 C-terminal 12 aa], for which the protein stability index under setting [1] is 0.693 ± 0.051 and the protein stability index (genetic background: wild type) came to 0.734 ± 0.03.

In the case of PAAIKQAIAANA [TRX1 C-terminal 12 aa], the protein stability index worked out at 0.45 ± 0.014 under setting [1] and 0.489 ± 0.013 (genetic background: wild type).

For PAAVFTETLKHD [RPL4A C-terminal 12 aa], the protein stability index by setting is: under setting [1], 0.7 ± 0.016; (genetic background: wild type) 0.7 ± 0.022.

As to PAETTDEGWTMI [ATG26 C-terminal 12 aa], the protein stability index by setting is: under setting [1], 0.704 ± 0.023; (genetic background: wild type) 0.68 ± 0.014.

Take PDLPSTIKPLAD [BCH2 C-terminal 12 aa]: the protein stability index turned out to be 0.693 ± 0.018 under setting [1] and 0.693 ± 0.0094 (genetic background: wild type).

For PIALTMFQRWAS [UPA1 C-terminal 12 aa], the protein stability index by setting is: under setting [1], 0.688 ± 0.01; (genetic background: wild type) 0.498 ± 0.038.

As to “PIRRQFYLNSRQ [YML047W-A C-terminal 12 aa]”, the protein stability index was 0.701 ± 0.011 under setting [1] and 0.691 ± 0.017 (genetic background: wild type).

As to PISPIGNAGSQI [MIN10 C-terminal 12 aa], the protein stability index runs as follows: under setting [1], 0.696 ± 0.00098; (genetic background: wild type) 0.6629 ± 0.0022.

Take PISSKYTDGKKR [YPL205C C-terminal 12 aa]: the protein stability index came to 0.686 ± 0.012 under setting [1] and 0.695 ± 0.013 (genetic background: wild type).

For PLQRNSNVSHHL [MPH2 C-terminal 12 aa], the protein stability index reads like this: under setting [1], 0.69243 ± 0.00056; (genetic background: wild type) 0.7038 ± 0.0037.

With PMGDIPVHLFKR [ACF4 C-terminal 12 aa], the protein stability index is 0.709 ± 0.013 under setting [1] and 0.729 ± 0.014 (genetic background: wild type).

On to PNKDVEQGNDMV [AKR1 C-terminal 12 aa], for which the protein stability index is 0.6883 ± 0.00087 under setting [1] and 0.695 ± 0.05 (genetic background: wild type).

For the sequence PQDKPAGQSIWL [HRR25 C-terminal 12 aa], the protein stability index by setting is: under setting [1], 0.6795 ± 0.00075; (genetic background: wild type) 0.6948 ± 0.0048.

Turning to PREGRLDKTPTY [KAR9 C-terminal 12 aa], the protein stability index came to 0.706 ± 0.008 under setting [1] and 0.704 ± 0.036 (genetic background: wild type).

As to PRPACGVIGLTN [SOD1 C-terminal 12 aa], the protein stability index was found to be 0.713 ± 0.03 under setting [1] and 0.726 ± 0.008 (genetic background: wild type).

With PSRVALVLALKE [GLC3 C-terminal 12 aa], the protein stability index amounted to 0.6875 ± 0.0016 under setting [1] and 0.747 ± 0.029 (genetic background: wild type).

Consider PVIYGLPIKFVS [ESP1 C-terminal 12 aa], for which the protein stability index was 0.7014 ± 0.0052 under setting [1] and 0.389 ± 0.0063 (genetic background: wild type).

Consider QAERQLYDAYFH [YFL064C C-terminal 12 aa], for which the protein stability index reads like this: under setting [1], 0.732 ± 0.023; (genetic background: wild type) 0.733 ± 0.038.

For QASSEKKWYKFW [COX20 C-terminal 12 aa], the protein stability index stood at 0.755 ± 0.018 under setting [1] and 0.6753 ± 0.0053 (genetic background: wild type).

For the sequence QGILMAKQYHIK [YSA1 C-terminal 12 aa], the protein stability index amounted to 0.714 ± 0.018 under setting [1] and 0.702 ± 0.02 (genetic background: wild type).

QGKTFYETVAKF [PST2 C-terminal 12 aa]: the protein stability index was determined as 0.77 ± 0.03 under setting [1] and 0.776 ± 0.017 (genetic background: wild type).

As to QHQQENPNLIDI [YAP1802 C-terminal 12 aa], the protein stability index amounted to 0.707 ± 0.024 under setting [1] and 0.734 ± 0.063 (genetic background: wild type).

For QIDDVNILKKNP [LIP2 C-terminal 12 aa], the protein stability index stood at 0.709 ± 0.009 under setting [1] and 0.702 ± 0.053 (genetic background: wild type).

Sequence QIPPEVQKWYYV [PPA2 C-terminal 12 aa] gave a protein stability index under setting [1] of 0.71952 ± 0.00036 and a protein stability index (genetic background: wild type) of 0.593 ± 0.02.

On to QLEKEGEDGLDS [IES4 C-terminal 12 aa], for which the protein stability index came to 0.6881 ± 0.005 under setting [1] and 0.666 ± 0.043 (genetic background: wild type).

QLITLLSKHLRT [HMS2 C-terminal 12 aa]: the protein stability index runs as follows: under setting [1], 0.693 ± 0.017; (genetic background: wild type) 0.676 ± 0.042.

For the sequence QLQLIMFGKKFK [AAC1 C-terminal 12 aa], the protein stability index under setting [1] came out at 0.698 ± 0.0099 and the protein stability index (genetic background: wild type) is 0.717 ± 0.036.

Regarding QPPAAAEGEAPK [BMH1 C-terminal 12 aa], the protein stability index is 0.712 ± 0.024 under setting [1] and 0.715 ± 0.026 (genetic background: wild type).

For the sequence QQQKVLAATLEK [HVG1 C-terminal 12 aa], the protein stability index runs as follows: under setting [1], 0.73 ± 0.0088; (genetic background: wild type) 0.656 ± 0.012.

Consider QRCCECASGNGC [YDR442W C-terminal 12 aa], for which the protein stability index reads like this: under setting [1], 0.6843 ± 0.0013; (genetic background: wild type) 0.668 ± 0.035.

For “QRTLVYKHKNDC [YLR285C-A C-terminal 12 aa]”, the protein stability index runs as follows: under setting [1], 0.686 ± 0.0091; (genetic background: wild type) 0.657 ± 0.0068.

Consider QRTQAICIDKKW [YJL135W C-terminal 12 aa], for which the protein stability index runs as follows: under setting [1], 0.697 ± 0.014; (genetic background: wild type) 0.6986 ± 0.0032.

QVRDILDKLNII [PRB1 C-terminal 12 aa]: the protein stability index reads like this: under setting [1], 0.703 ± 0.015; (genetic background: wild type) 0.6877 ± 0.0033.

On to “RACPLRPKSLIA [YMR315W-A C-terminal 12 aa]”, for which the protein stability index by setting is: under setting [1], 0.655 ± 0.0078; (genetic background: wild type) 0.667 ± 0.032.

With RAEIVIEEAGEL [CPR3 C-terminal 12 aa], the protein stability index under setting [1] came out at 0.683 ± 0.011 and the protein stability index (genetic background: wild type) worked out at 0.6789 ± 0.0032.

As for RDLHVEHDNEFY [RPD3 C-terminal 12 aa], the protein stability index under setting [1] turned out to be 0.718 ± 0.019 and the protein stability index (genetic background: wild type) came to 0.662 ± 0.074.

As for RDLNKLRSFQNF [YFL012W C-terminal 12 aa], the protein stability index by setting is: under setting [1], 0.724 ± 0.024; (genetic background: wild type) 0.4914 ± 0.0021.

As to RDREMVRELFRR [RSO55 C-terminal 12 aa], the protein stability index was determined as 0.711 ± 0.017 under setting [1] and 0.692 ± 0.021 (genetic background: wild type).

Regarding RFREEAYYSQFR [TCD2 C-terminal 12 aa], the protein stability index is, setting by setting: under setting [1], 0.716 ± 0.013; (genetic background: wild type) 0.672 ± 0.037.

Take RHEGQRSKNSVK [GYP7 C-terminal 12 aa]: the protein stability index was 0.686 ± 0.015 under setting [1] and 0.689 ± 0.019 (genetic background: wild type).

Turning to RIEKYSDDVIPK [RIM13 C-terminal 12 aa], the protein stability index under setting [1] came out at 0.695 ± 0.018 and the protein stability index (genetic background: wild type) came to 0.722 ± 0.0089.

For RKEIRKQKRATF [MRPS28 C-terminal 12 aa], the protein stability index runs as follows: under setting [1], 0.709 ± 0.059; (genetic background: wild type) 0.734 ± 0.028.

On to RKEKDPETYLDK [ERG8 C-terminal 12 aa], for which the protein stability index runs as follows: under setting [1], 0.691 ± 0.023; (genetic background: wild type) 0.684 ± 0.01.

Take RKNGYDIMTLHE [CLB1 C-terminal 12 aa]: the protein stability index was 0.719 ± 0.045 under setting [1] and 0.666 ± 0.027 (genetic background: wild type).

RLGLDWKPDGMS [STD1 C-terminal 12 aa]: the protein stability index amounted to 0.725 ± 0.029 under setting [1] and 0.6963 ± 0.0059 (genetic background: wild type).

Turning to RLIKHINDIFWK [GPI13 C-terminal 12 aa], the protein stability index is, setting by setting: under setting [1], 0.717 ± 0.077; (genetic background: wild type) 0.723 ± 0.092.

As for RLKDGSVTCIKS [HMG1 C-terminal 12 aa], the protein stability index under setting [1] was found to be 0.7299 ± 0.0059 and the protein stability index (genetic background: wild type) was 0.7 ± 0.021.

In the case of RNKKKRFSWVGY [LAA2 C-terminal 12 aa], the protein stability index was determined as 0.699 ± 0.066 under setting [1] and 0.661 ± 0.044 (genetic background: wild type).
